# Laboratory results published in patent US20240254246A1 (PROMETHEUS BIOSCIENCES, published 2024).
# Where a chain is given by its changes, count along the chain named. Read-outs that look alike come from different tables or passages of the source.
# B1: anti-CD30L antibody clone 2 with IgG1 constant region SEQ ID NO: 502 (antibody, V domains shown)
# VH: EVQLVESGGGLVQPGRSLRLSCAASGFNFDDYAMHWVRQAPGKGLEWVSGISWRSGNIGYAGSVKGRFTISRDNAKNSLYLQMNSLRPEDSALYYCAKDKGIGFNWNYEGFDYWGQGTLVTVSS
# VL: DIQMTQSPSSLSASVGDRVTITCRASQGISNHLAWFQQKPGKAPKSLIYAASSLQSGVPSKFSGSGSGTDFTLTISSLQPEDFATYYCQQYVTYPLTFGGGTKVEIK
# notes: copies: 2 + 2
# B2: anti-CD30L antibody clone 80 (antibody, V domains shown)
# VH: EVQLVESGGGLVQPGGSLRLSCEVSGFTFSSYDMHWVRQVTGTGLEWVSSIGIGGDTYYPGSVKGRFTISRENAKNSLYLQMNSLRGGDTGVYYCARGEWDLLWYFMDVWGKGTTVTVSS
# VL: B1 VL with V15I, N31S, H32W, F36Y, S46L, K61R, Y91A, V92N, T93S, Y94F
# notes: purified recombinant IgG (held by anti-human biosensors); mouse strain #1
# B3: anti-CD30L antibody clone 82 (antibody, V domains shown)
# VH: EVQLVESGGGLVQPGGSLRLSCAVSGITFSNAWMSWVRQAPGKGLEWVGRIKSKTYGGTTDYAAPVKGRFIISRDDSKDTLYLQMNSLKTEDTAIYYCTTDPWNYVNYNYFMDVWGKGTTVTVSS
# VL: DIQMTQSPSSLSASVGDRVTITCRASQDIRNYLAWYQQKPGKITHLLVYAASTLQSGVPSRFSGSGSGTDFTLTINSLQPEDVATYYCQNYFSVPLTFGGGTKVEIK
# notes: as for B2
# Key:
# [1] = target: T1, human CD30L expressed on cells (human, UniProt P32971 1-234); test: cell-based or functional assay
# T1 sequence: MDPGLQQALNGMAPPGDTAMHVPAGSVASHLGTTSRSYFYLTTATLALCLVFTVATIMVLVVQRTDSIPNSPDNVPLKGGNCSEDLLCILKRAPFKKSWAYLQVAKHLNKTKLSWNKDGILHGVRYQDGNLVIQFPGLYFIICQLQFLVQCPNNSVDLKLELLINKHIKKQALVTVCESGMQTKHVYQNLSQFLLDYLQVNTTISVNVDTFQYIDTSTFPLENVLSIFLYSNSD
# [2] = target: T2, cynomolgus CD30L expressed on cells (cynomolgus, UniProt A0A7N9CVX7 1-234); test: cell-based or functional assay
# T2 sequence: T1 sequence with A19T, M20T, G32E, L41F, V75I, K78R, I204V, I227V
# CDH13 = target: T3, CDH13 (human, UniProt P55290 139-693); test: cell microarray, library and confirmation screens
# T3 construct: whole, on cells; also called hit #16
# T3 sequence (looked up): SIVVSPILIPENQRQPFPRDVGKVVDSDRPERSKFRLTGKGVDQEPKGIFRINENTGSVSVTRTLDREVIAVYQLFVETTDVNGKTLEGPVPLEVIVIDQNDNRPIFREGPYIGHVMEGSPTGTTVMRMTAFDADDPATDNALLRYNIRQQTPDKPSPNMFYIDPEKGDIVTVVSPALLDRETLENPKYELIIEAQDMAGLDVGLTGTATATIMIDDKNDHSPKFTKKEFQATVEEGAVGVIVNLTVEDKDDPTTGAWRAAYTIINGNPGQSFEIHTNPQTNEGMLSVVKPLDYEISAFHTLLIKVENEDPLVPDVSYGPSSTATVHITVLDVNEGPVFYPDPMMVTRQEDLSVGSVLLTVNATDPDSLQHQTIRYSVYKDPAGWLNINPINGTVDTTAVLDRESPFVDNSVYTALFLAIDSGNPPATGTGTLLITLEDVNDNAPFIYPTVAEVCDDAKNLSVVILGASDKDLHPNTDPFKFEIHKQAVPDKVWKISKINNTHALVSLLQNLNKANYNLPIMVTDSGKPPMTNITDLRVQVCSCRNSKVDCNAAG
# recombinant human CD30L [3] = target: T4, recombinant human CD30L (human, UniProt P32971 63-234); test: ELISA on recombinant protein
# T4 construct: Purified recombinant protein of ELISA, BLI, Carterra and KinExA; also called rhCD30L; huCD30L
# T4 sequence (looked up): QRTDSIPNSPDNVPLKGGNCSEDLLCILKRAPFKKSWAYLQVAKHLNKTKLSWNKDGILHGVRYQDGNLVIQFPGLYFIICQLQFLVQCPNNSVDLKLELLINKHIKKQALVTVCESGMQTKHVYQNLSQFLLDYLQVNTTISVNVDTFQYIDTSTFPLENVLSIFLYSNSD
# [4] = target: T5, recombinant cynomolgus CD30L (cynomolgus, UniProt A0A7N9CVX7 63-234); test: ELISA on recombinant protein
# T5 construct: Purified recombinant protein; also called rcyCD30L; cyno CD30L
# T5 sequence: T4 sequence (looked up) with V13I, K16R, I142V, I165V
# recombinant mouse CD30L = target: T6, recombinant mouse CD30L (mouse, UniProt P32972 68-239); test: ELISA on recombinant protein
# T6 construct: Purified recombinant protein; also called rmCD30L
# T6 sequence (looked up): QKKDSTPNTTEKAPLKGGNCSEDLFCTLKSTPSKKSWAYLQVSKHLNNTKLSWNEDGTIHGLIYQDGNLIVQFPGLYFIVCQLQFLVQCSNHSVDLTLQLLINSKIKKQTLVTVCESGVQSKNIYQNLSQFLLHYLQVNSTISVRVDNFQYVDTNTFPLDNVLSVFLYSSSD
# [5] = target: T7, human CD30L expressed on B16 cells (human, UniProt P32971 1-234); test: cell-based or functional assay
# T7 sequence (looked up): T1 sequence
# recombinant human CD30L [6] = target: T4, recombinant human CD30L; test: recombinant blocking ELISA; competitor CD30
# recombinant human CD30L [7] = target: T4, recombinant human CD30L; test: ELISA, binding to rhCD30L (OD 450 nm)
# [8] = target: T7, human CD30L expressed on B16 cells; test: flow cytometry on B16 cells expressing hCD30L
# recombinant human CD30L [9] = target: T4, recombinant human CD30L; test: BLI, CD30 association to CD30L held by captured IgG; competitor rhCD30
# Protocol: Briefly, individual anti-human biosensors were loaded with purified IgG (normalized to 10 μg/mL) and a baseline was measured for each biosensor. Biosensors were saturated with biotin and with polyclonal hulgG and a baseline was measured. Loaded biosensors were then allowed to bind CD30L and the association rate was measured for the binding. Biosensors were moved to buffer wells to measure the dissociation rate.
# [10] = target: T7, human CD30L expressed on B16 cells; test: flow cytometry, binding to B16 cells expressing human CD30L (MFI)
# recombinant human CD30L [11] = target: T4, recombinant human CD30L; test: ELISA, binding to rhCD30L (OD 450 nm); remark: listed apart in the source
# [12] = target: T7, human CD30L expressed on B16 cells; test: flow cytometry, binding to B16 cells expressing human CD30L (MFI); remark: listed apart in the source
Binder,"IL-8 release dual cell assay, fold better IC50 than reference 1 (ref1) anti-CD30L [1] [fold]","IL-8 release dual cell assay, fold better IC50 than reference 1 (ref1) anti-CD30L [2] [fold]",binding result (CDH13),rhCD30L (+) ELISA (recombinant human CD30L [3]),rcyCD30L (+) ELISA [4],rmCD30L (+) ELISA (recombinant mouse CD30L),"IC50 (read off the curve), IL-8 release, dual cell assay (B16-huCD30L cells + K299 cells) [5] [nM]",IC50 (recombinant human CD30L [6]) [nM],EC50 (read off the curve) (recombinant human CD30L [7]) [nM],hCD30L B16 (+) FLOW [8],rhCD30L:rhCD30 Blocking (recombinant human CD30L [9]),EC50 (read off the curve) [10] [nM],EC50 (read off the curve) (recombinant human CD30L [11]) [nM],EC50 (read off the curve) [12] [nM]
B1,2,2.6,no binding (tested: 5 µg/mL),,,,,,,,,,,
B2,,,,0.941,0.475,0.048,~2,2.74,~0.2,8.3e+06,0.0635,~1,,
B3,,,,1.41,0.982,0.048,,3.51,,8.42e+06,0.071,,~0.1,~3
